“Also recorded” adds a separate entry of the source. Where two headings read alike, the source gives them in different places. *1 amine or outer side, *2 acyl side, *3 side chain or, on linkers, in order; H or OH if unused. Where a SMILES comes first, the peptide text is derived from it. CO = O=C([*:1])[*:2]
Assays:
trypsin-like enzyme [1] = molecular target: T1, trypsin-like enzyme (Homo sapiens, UniProt O60235); experiment: Digestion of natural substrates detected by SDS-polyacrylamide gel electrophoresis; format: biochemical
T1 construct: from tissue; host or cells: cough phlegm (sputum) of patients with chronic disease of the respiratory tract

influenza viruses = conditions: in contrast to trypsin; cited from earlier work
trypsin-like enzyme [2] = molecular target: T1, trypsin-like enzyme; experiment: Substrate specificity, synthetic MCA substrates (assay method of trypsin activity); format: biochemical; conditions: synthetic substrates, pH 8.6
[3] = Measurement of optimum pH of trypsin-like enzyme; format: biochemical; conditions: at pH 6.0, relative to the enzyme at pH 7.6
Procedure: 50 μl of the solution of the trypsin-like protease obtained in Example 1 was added to 1.5 ml of 0.1M Tris-HCl buffer (pH 8.6) containing 100 μM of a synthetic substrate for trypsin Boc-Phe-Ser-Arg-MCA (MCA=methylcoumarinamide), and the mixture was subjected to incubation at 37° C. for 1 hour. 1 ml of 30% acetic acid was then added, the amount of 7-amino-4-methylcoumarin (AMC) formed was determined by fluorescent assay (fluorescence 440 nm, excitating light 380 nm), and the activity of the enzyme was calculated based thereon. An activity of forming 1 pM of AMC in 1 minute is defined as 1 unit (1 unit=1 pM AMC/min).
The following buffers were prepared for ascertaining trypsin activity at various pH values.
The activity of the trypsin-like enzyme obtained in Example 1 in each buffer was assayed according to the method described in Example 2, and the results are shown in FIG. 2.

NDV Miyadera strain = conditions: cited from earlier work
fibrinogen = experiment: Influence of trypsin-like enzyme on thrombin-induced coagulation time of fibrinogen; format: biochemical; conditions: fibrinogen 2 mg/ml, 37° C., thrombin 2.5 units/ml; in proportion as the added activity unit increases; FIG. 3
Procedure: Fibrinogen was dissolved in 0.01M Tris-HCl buffer (pH 7.4), 0.01M CaCl2 0.15M NaCl so that its concentration could be 2 mg/ml, the trypsin-like enzyme obtained in Example 1 was added with its activity unit changed, the mixture was heated to 37° C., 0.1 ml of this reaction solution was mixed with 0.1 ml of a thrombin solution (2.5 units/ml), and coagulation time was measured on the mixture. In proportion as the added activity unit of the trypsin-like enzyme increases, coagulation time was prolonged.

VSV New Jersey strain = conditions: cited from earlier work
[4] = molecular target: Suc-Gly-Pro-Leu-Gly-Pro-MCA
[5] = molecular target: trypsin-like enzyme isolated from cough phlegm of a patient suffering from a chronic respiratory apparatus disease (human)
[6] = molecular target: rat mast cell-derived tryptase (rat) (UniProt P27435)
[7] = tested on: rat mast cell-derived tryptase; experiment: Effect of protease inhibitors on enzymatic activity; format: biochemical
trypsin-like enzyme [8] = molecular target: T1, trypsin-like enzyme; experiment: as above; format: biochemical; conditions: for inhibition at 10 µM: read-out: Inhibition (%) Trypsin-like protease (human)
[9] = molecular target: T2, human-derived neutrophile elastase (Homo sapiens, UniProt P08246); experiment: as above; format: biochemical; conditions: read-out: Inhibition (%) Neutrophile elastase (human)
T2 sequence (P08246 30-267): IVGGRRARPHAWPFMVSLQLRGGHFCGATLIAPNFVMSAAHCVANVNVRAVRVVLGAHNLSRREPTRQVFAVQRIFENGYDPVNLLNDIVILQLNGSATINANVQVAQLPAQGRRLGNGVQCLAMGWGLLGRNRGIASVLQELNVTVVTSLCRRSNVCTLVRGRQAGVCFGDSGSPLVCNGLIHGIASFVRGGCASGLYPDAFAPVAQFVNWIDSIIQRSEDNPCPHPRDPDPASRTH

[10] = Example 5: inhibitors 10 μM, PMSF 1 mM

Sequence of trypsin-like enzyme isolated from cough phlegm of a patient suffering from a chronic respiratory apparatus disease (O60235 187-418 limits assumed): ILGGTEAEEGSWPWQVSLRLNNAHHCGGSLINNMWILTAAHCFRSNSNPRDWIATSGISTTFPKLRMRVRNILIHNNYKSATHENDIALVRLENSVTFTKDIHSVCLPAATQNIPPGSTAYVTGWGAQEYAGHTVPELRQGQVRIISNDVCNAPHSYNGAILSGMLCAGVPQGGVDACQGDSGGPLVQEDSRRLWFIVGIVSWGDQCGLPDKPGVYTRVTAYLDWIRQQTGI
T1 sequence (O60235 187-418): as the sequence (O60235 187-418 limits assumed) above

With fibrinogen as the molecule, how does the “Digestion of natural substrate by trypsin-like enzyme” value (shortened to “Digestion of natural substrate”) (trypsin-like enzyme [1]) read?
The value was “specifically digested; also recorded: digests”.

With “rat mast cell-derived tryptase (from UniProt P27435) (enzyme)” as the molecule, how does the Substrate digestion ratio (%) (Boc-Val-Pro-Arg-MCA) read?
Its Substrate digestion ratio (%) is 50.6%.

And the Substrate digestion ratio (%) (Boc-Val-Leu-Lys-MCA)?
Its Substrate digestion ratio (%) is 6.1%.

What about the Substrate digestion ratio (%) (Boc-Gln-Gly-Arg-MCA) of the same molecule?
The Substrate digestion ratio (%) was 4.6%.

And the Substrate digestion ratio (%) (Suc-Ala-Ala-Pro-Phe-MCA)?
Its Substrate digestion ratio (%) is 2%.

And the Substrate digestion ratio (%) (Boc-Phe-Ser-Arg-MCA)?
The Substrate digestion ratio (%) was 100%.

And the Substrate digestion ratio (%) (Boc-Ile-Gln-Gly-Arg-MCA)?
The Substrate digestion ratio (%) was 149%.

With “trypsin-like enzyme: protease isolated from cough phlegm of patients with chronic respiratory tract disease, amino acid sequence [I] (SEQ ID NO:19)” as the molecule, how does the “action of inactivating influenza viruses” value (influenza viruses) read?
The value was “inactivating”.

What about the “chymotrypsin activity, elastase activity, collagenase activity, leucine aminopeptidase activity of the enzyme” value (trypsin-like enzyme [2]) of the same molecule?
Its value is “did not exhibit”.

And the “Inactivation by pH” value [3]?
The value was “about 80%”.

What about the “action of inactivating NDV Miyadera strain” value (NDV Miyadera strain) of the same molecule?
Its value is “inactivating”.

What about the coagulation time (fibrinogen) of the same molecule?
Its coagulation time is “prolonged”.

And the “action of inactivating VSV New Jersey strain” value (VSV New Jersey strain)?
Its value is “inactivating”.

Which results are given for “trypsin-like enzyme isolated from cough phlegm of a patient suffering from a chronic respiratory apparatus disease”?
Substrate digestion ratio (%) (Boc-Val-Pro-Arg-MCA): 74.6%; Substrate digestion ratio (%) (Boc-Val-Leu-Lys-MCA): 3.9%; Substrate digestion ratio (%) (Boc-Gln-Ala-Arg-MCA): 52.2%; Substrate digestion ratio (%) (Boc-Gln-Gly-Arg-MCA): 13.8%; Substrate digestion ratio (%) (Suc-Ala-Ala-Pro-Phe-MCA): 0%; Substrate digestion ratio (%) [4]: 0%; Substrate digestion ratio (%) (Boc-Phe-Ser-Arg-MCA): 100%; Substrate digestion ratio (%) (Boc-Ile-Gln-Gly-Arg-MCA): 13.1%; Substrate digestion ratio (%) (Suc-Ala-Pro-Ala-MCA): 0%

For substance P, which “Digestion of natural substrate” value (trypsin-like enzyme [1]) is on record?
Its value is “not digested; also recorded: does not digest”.

Which results are given for α1-antitrypsin?
Inhibition (%) [5]: 23.5%; Inhibition (%) [6]: 66.3%

Which results are given for `CC(C)[C@H](NC(=O)[C@H](CCCNC(=N)N)NC(=O)N[C@@H](Cc1ccccc1)C(=O)O)C(=O)N[C@H](C=O)CCCNC(=N)N` [Antipain, antipain] ({Phe-CO}-Arg-Val-Arg-aldehyde)?
Inhibition (%) Tryptase (derived from rat mast cell) ([7]; 10 µM): 98.2%; Inhibition of trypsin-like enzyme (in words) (trypsin-like enzyme [8]): inhibited; inhibition at 10 µM (trypsin-like enzyme [8]): 78.1%; inhibition at 10 µM [9]: 11.1%

Which results are given for `CC(C)C[C@H](NC(=O)[C@@H](O)[C@H](N)Cc1ccccc1)C(=O)O` [Bestatin, bestatin]?
Inhibition (%) Tryptase (derived from rat mast cell) ([7]; inhibitor 10 μM): 23.4%; Inhibition of trypsin-like enzyme (in words) (trypsin-like enzyme [8]; [10]): not inhibited; inhibition at 10 µM (trypsin-like enzyme [8]; inhibitor 10 μM): 0%; inhibition at 10 µM ([9]; inhibitor 10 μM): 15.2%

With vasoactive intestinal peptide [VIP] as the molecule, how does the “Digestion of natural substrate” value (trypsin-like enzyme [1]) read?
The value was “specifically digested; also recorded: digests”.

Which “Inhibition (%) Tryptase (derived from rat mast cell)” value (from here on “Inhibition (%) Tryptase”) ([7]; inhibitor 10 μM) does the source give for `CC(C)C[C@@H](N)[C@H](O)C(=O)N[C@H](C(=O)N[C@H](C(=O)N[C@@H](CC(=O)O)C(=O)O)C(C)C)C(C)C` [Amastatin, amastatin] here?
The value was 6.6%.

What about the “Inhibition of trypsin-like enzyme (in words)” value (from here on “Inhibition … (in words)”) (trypsin-like enzyme [8]; [10]) of the same molecule?
Its value is “not inhibited”.

And the inhibition at 10 µM (trypsin-like enzyme [8]; inhibitor 10 μM)?
Its inhibition at 10 µM is 0%.

And the inhibition at 10 µM ([9]; inhibitor 10 μM)?
The inhibition at 10 µM was 67.6%.

With “α-1-antitrypsin: a blood protease inhibitor; also used as natural substrate” as the molecule, how does the “Digestion of natural substrate” value (trypsin-like enzyme [1]) read?
Its value is “does not digest”.

What about the “Digestion of natural substrate” value (trypsin-like enzyme [1]; listed as al-antitrypsin) of the same molecule?
The value was “not digested”.

And the “Inhibition (%) Tryptase” value ([7]; 10 µM)?
The value was 66.3%.

What about the “Inhibition … (in words)” value (trypsin-like enzyme [8]; [10]) of the same molecule?
Its value is “inhibited”.

And the “Inhibition (%) Trypsin-like protease (human)” value (trypsin-like enzyme [8]; inhibitor 10 μM)?
The value was 23.5%.

What does the source list for “human neutrophile elastase (from UniProt P08246) (enzyme)”?
Substrate digestion ratio (%) (Boc-Val-Pro-Arg-MCA): 0.2%; Substrate digestion ratio (%) (Boc-Val-Leu-Lys-MCA): 0.1%; Substrate digestion ratio (%) (Boc-Gln-Ala-Arg-MCA): 0.3%; Substrate digestion ratio (%) (Boc-Gln-Gly-Arg-MCA): 0.2%; Substrate digestion ratio (%) (Suc-Ala-Ala-Pro-Phe-MCA): 0.1%; Substrate digestion ratio (%) [4]: 0%; Substrate digestion ratio (%) (Boc-Phe-Ser-Arg-MCA): 0.4%; Substrate digestion ratio (%) (Boc-Ile-Gln-Gly-Arg-MCA): 0.3%; Substrate digestion ratio (%) (Suc-Ala-Pro-Ala-MCA): 100%

For `CC(=O)N[C@@H](CC(C)C)C(=O)N[C@@H](CC(C)C)C(=O)N[C@H](C=O)CCCNC(=N)N` [Leupeptin, leupeptin], which “Inhibition (%) Tryptase” value ([7]; 10 µM) is on record?
Its value is 100%.

And the “Inhibition … (in words)” value (trypsin-like enzyme [8])?
The value was “inhibited”.

What about the inhibition at 10 µM (trypsin-like enzyme [8]) of the same molecule?
The inhibition at 10 µM was 82.5%.

And the inhibition at 10 µM [9]?
Its inhibition at 10 µM is 0%.
